Columns and labels:
[1] = tested on: TSPYL5-NLD (Homo sapiens); experiment: EMSA; conditions: 10 mM Hepes pH 7.5, 200 mM NaCl, 1 mM TCEP, 5% glycerol, 0.5 mM EDTA; 30 min on ice then 20 min at 25 °C; 6% native Tris-glycine PAGE, GelGreen stain
[2] = target: recombinant His-tagged histone H3/H4 (human) (UniProt P68431); experiment: SEC-MALS; Enrich SEC 70 column in high salt HBS buffer (20 mM Hepes pH 7.5, 2 M NaCl, 1 mM TCEP, 5% glycerol); TSPYL5-NLD alone, H3/H4 alone (H3/H4 dimers to tetramer) and the coexpressed, co-purified complex

Substance	Kd [1]	further results
146 bp DNA	380 nM	–
80 bp DNA	500 nM	–
His-SUMO-tagged TSPYL5-NLD (from UniProt Q86VY4 198-388) (domain or fragment)	–	stoichiometry N (TSPYL5 : 2 H3 : 2 H4) [2]: 2
recombinant His-tagged histone H3/H4 (from UniProt P68431 1-136; P62805 1-103) (complex)	–	stoichiometry N [2]: 4
